{"source": "patent US20130115681", "test_in_all_cases": "cleavage_in_vitro", "key": {"[1]": {"target": "T1, SalI (Streptomyces albus G) (UniProt Q53608)", "T1 sequence": "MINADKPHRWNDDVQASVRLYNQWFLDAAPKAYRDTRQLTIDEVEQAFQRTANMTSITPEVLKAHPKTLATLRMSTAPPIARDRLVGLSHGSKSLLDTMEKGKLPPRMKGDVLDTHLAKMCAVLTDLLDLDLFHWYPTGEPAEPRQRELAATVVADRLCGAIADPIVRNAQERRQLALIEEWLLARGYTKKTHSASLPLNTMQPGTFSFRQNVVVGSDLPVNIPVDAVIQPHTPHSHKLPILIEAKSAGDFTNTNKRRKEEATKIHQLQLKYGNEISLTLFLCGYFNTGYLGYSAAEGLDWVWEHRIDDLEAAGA", "details": "NEB4, 37 C"}, "[2]": {"target": "T2, SalI-HF R107A (Streptomyces albus G) (UniProt Q53608)", "T2 sequence": "T1 sequence with R107A", "details": "NEB4, 37 C"}, "[3]": {"system": "T3, BspQI-HF K279P/R388F (Bacillus sphaericus)", "T3 sequence": "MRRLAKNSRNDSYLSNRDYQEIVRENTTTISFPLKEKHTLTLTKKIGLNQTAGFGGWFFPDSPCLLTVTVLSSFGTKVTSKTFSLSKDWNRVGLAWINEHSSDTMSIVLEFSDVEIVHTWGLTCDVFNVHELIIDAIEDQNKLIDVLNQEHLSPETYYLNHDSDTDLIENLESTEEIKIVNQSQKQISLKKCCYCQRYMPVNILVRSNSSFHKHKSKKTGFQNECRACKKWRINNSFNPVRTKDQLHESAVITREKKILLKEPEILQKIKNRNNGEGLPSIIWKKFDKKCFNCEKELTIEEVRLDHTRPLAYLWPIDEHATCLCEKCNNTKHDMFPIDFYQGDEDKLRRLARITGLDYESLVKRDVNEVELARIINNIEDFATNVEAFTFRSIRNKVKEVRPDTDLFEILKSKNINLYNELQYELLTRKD", "details": "NEB4, 50 C"}, "[4]": {"target": "T4, BamHI-HF E163A/E167T (Bacillus amyloliquefaciens) (UniProt P23940)", "T4 sequence": "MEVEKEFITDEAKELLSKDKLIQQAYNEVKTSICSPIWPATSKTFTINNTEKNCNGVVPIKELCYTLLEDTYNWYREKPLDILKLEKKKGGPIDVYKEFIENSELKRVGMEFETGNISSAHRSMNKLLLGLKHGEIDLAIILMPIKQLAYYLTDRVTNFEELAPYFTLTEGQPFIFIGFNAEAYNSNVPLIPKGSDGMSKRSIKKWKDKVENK", "details": "NEB4, 37 C"}, "[5]": {"system": "BsmBI-HF N185Y/R232A", "details": "NEB4, 55 C"}, "[6]": {"system": "BstXI-HF N65A", "details": "NEB4, 55 C"}, "[7]": {"system": "BstXI", "details": "NEB4, 55 C"}, "[8]": {"target": "T5, HindIII (Haemophilus influenzae Rd) (UniProt P43870)", "T5 sequence": "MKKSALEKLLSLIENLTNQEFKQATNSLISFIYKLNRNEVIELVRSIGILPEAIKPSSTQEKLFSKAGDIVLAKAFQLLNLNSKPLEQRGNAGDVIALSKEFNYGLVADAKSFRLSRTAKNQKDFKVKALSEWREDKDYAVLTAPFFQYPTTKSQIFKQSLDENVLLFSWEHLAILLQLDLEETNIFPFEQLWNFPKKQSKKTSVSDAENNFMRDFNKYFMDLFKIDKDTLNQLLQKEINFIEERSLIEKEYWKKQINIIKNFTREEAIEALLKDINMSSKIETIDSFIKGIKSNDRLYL", "details": "NEB4, 37 C; FI 250 in NEB2"}, "[9]": {"system": "T6, NcoI-HF A2T/R31A (Nocardia corallina)", "T6 sequence": "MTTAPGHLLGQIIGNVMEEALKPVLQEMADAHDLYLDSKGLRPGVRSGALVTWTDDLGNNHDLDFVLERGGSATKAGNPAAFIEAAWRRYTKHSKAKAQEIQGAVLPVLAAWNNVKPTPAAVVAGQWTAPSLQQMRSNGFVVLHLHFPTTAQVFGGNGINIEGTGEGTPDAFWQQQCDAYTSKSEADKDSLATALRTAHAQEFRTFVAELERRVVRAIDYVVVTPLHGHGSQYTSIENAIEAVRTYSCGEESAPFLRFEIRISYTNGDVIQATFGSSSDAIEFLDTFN", "details": "NEB4, 37 C"}, "[10]": {"target": "T7, PstI-HF D91A (Providencia stuartii 164) (UniProt P00640)", "T7 sequence": "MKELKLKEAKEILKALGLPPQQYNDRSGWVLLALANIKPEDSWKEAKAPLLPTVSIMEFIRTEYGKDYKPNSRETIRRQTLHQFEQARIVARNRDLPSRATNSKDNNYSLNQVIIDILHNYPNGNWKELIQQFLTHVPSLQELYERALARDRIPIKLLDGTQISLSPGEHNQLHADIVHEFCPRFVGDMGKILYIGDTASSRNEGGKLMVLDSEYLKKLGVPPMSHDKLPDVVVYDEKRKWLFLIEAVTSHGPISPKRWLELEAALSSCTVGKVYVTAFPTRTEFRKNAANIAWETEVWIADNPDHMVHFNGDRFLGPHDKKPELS", "details": "NEB4, 37 C"}, "[11]": {"system": "T8, SbfI (Streptomyces species Bf-61?)", "T8 sequence": "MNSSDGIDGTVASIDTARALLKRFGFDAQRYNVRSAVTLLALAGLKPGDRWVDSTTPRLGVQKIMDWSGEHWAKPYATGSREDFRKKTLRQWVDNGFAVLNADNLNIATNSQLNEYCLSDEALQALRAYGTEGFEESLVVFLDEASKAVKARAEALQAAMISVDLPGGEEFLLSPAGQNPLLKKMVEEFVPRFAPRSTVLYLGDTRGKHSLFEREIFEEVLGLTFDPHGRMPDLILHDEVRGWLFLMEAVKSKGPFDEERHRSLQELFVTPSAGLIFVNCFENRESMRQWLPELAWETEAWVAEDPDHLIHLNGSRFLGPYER", "details": "NEB4, 37 C"}, "[12]": {"system": "T9, SbfI-HF K251A (Streptomyces species Bf-61?)", "T9 sequence": "T8 sequence with K251A", "details": "NEB4, 37 C"}, "[13]": {"target": "T10, ScaI-HF H193A/S201F (Streptomyces caespitosus) (UniProt O52691)", "T10 sequence": "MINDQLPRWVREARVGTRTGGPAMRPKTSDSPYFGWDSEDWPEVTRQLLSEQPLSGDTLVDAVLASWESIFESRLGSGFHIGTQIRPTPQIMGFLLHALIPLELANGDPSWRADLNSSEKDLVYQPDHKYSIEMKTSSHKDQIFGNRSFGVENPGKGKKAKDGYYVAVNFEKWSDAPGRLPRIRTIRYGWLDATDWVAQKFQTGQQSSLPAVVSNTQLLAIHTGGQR", "details": "NEB4, 37 C"}, "[14]": {"system": "T11, SphI-HF K100A (Streptomyces phaeochromogenes)", "T11 sequence": "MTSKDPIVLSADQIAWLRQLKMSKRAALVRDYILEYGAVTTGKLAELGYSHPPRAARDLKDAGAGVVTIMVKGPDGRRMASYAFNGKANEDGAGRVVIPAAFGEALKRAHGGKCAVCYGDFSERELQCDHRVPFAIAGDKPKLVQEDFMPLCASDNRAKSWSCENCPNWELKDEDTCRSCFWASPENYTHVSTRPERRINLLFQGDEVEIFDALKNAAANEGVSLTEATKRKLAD", "details": "NEB4, 37 C"}}, "note": "Numbering of substitutions follows the chain as printed."}
{"substance": "HindIII-digested lambda DNA", "values": [{"measurement": "activity (fidelity index)", "setting": "[1]", "value": 1}, {"measurement": "activity (fidelity index)", "setting": "[2]", "value": 32000}]}
{"substance": "pUC19", "values": [{"measurement": "activity (fidelity index)", "setting": "[3]", "value": 4000}]}
{"substance": "lambda phage DNA", "values": [{"measurement": "activity (fidelity index)", "setting": "[4]", "value": 4000}, {"measurement": "activity (fidelity index)", "setting": "[5]", "value": 500}, {"measurement": "activity (fidelity index)", "setting": "[6]", "value": 250}, {"measurement": "activity (fidelity index)", "setting": "[7]", "value": 4}, {"measurement": "activity (fidelity index)", "setting": "[8]", "value": 32}, {"measurement": "activity (fidelity index)", "setting": "[9]", "value": 64000}, {"measurement": "activity (fidelity index)", "setting": "[10]", "value": 4000}, {"measurement": "activity (fidelity index)", "setting": "[11]", "value": 8}, {"measurement": "activity (fidelity index)", "setting": "[12]", "value": 250}, {"measurement": "activity (fidelity index)", "setting": "[13]", "value": 1000}, {"measurement": "activity (fidelity index)", "setting": "[14]", "value": 8000}]}
